Experimental data as given in the FLAb antibody collection (doi:10.7554/elife.23156).

B1: scFv; the commonest letter at each place (parent)
chain 1: EVKLDETGGGLVQPGRPMKLSCVASGFTFSDYWMNWVRQSPEKGLEWVAQIRNKPYNYETYYSDSVKGRFTISRDDSKSSVYLQMNNLRVEDMGIYYCTGSYYGMDYWGQGTSVTVS
chain 2: DVVMTQTPLSLPVSLGDQASISCRSSQSLVHSNGNTYLRWYLQKPGQSPKVLIYKVSNRFSGVPDRFSGSGSGTDFTLKISRVEAEDLGVYFCSQSTHVPWTFGGGTKLEIK

Key:
fluorescein = variants of: B1; test: Kd (Tite-Seq); settings: with fluorescein; format: scFv 4-4-20, heavy + light
[1] = variants of: B1; test: yeast surface expression (ratio to wild type); higher = more expressed; settings: format: scFv 4-4-20, heavy + light

Row | Kd (fluorescein) | Variant | yeast surface expression [1]
1 | ≥ 10 µM | chain 1 Y103Q W108N | 0.415
2 | ≥ 10 µM | chain 1 W33C V37W | 0.503
3 | ≥ 10 µM | chain 1 Y103I Y107F W108D | 0.437
4 | ≥ 10 µM | chain 1 S30P D31S N35P | 0.757
5 | ≥ 10 µM | chain 1 Y103I G104M | 0.368
6 | ≥ 10 µM | chain 1 Y32K N35R | 0.103
7 | 0.000369 µM | chain 1 T28E V37C | 0.863
8 | 0.0896 µM | chain 1 Y103M W108Q | 0.547
9 | ≥ 10 µM | chain 1 Y32Q | 0.929
10 | ≥ 10 µM | chain 1 Y32W | 0.805
11 | 4.14 µM | chain 1 Y102N Y103C | 0.692
12 | ≥ 10 µM | chain 1 Y102Q G104L | 0.667
13 | ≥ 10 µM | chain 1 Y102Q G104H | 0.672
14 | 0.0113 µM | chain 1 S30I M34V | 0.753
15 | 0.0189 µM | chain 1 T28F M34A | 0.566
16 | ≥ 10 µM | chain 1 W33C W36G | 1.12
17 | 5.37 µM | chain 1 W33C N35W | 0.456
18 | ≥ 10 µM | chain 1 S101M G109H | 0.229
19 | ≥ 10 µM | chain 1 Y107V W108R | 0.492
20 | ≥ 10 µM | chain 1 Y102L Y107C G109A | 0.168

Row | Kd (fluorescein) | Variant | yeast surface expression [1]
21 | 4.37 µM | chain 1 Y103Q M105Q | 1.14
22 | ≥ 10 µM | chain 1 Y107D G109R | 0.366
23 | ≥ 10 µM | chain 1 Y102K W108S | 0.534
24 | ≥ 10 µM | chain 1 S101Q M105V | 0.835
25 | 0.0259 µM | chain 1 W36M | 0.721
26 | ≥ 10 µM | chain 1 Y32H M34H | 0.674
27 | ≥ 10 µM | chain 1 Y32W N35T | 0.786
28 | ≥ 10 µM | chain 1 Y32W W33F | 0.941
29 | 0.0318 µM | chain 1 T28A Y32H | 0.717
30 | ≥ 10 µM | chain 1 Y103R G109I | 0.291
31 | ≥ 10 µM | chain 1 Y102G Y103K G109K | 0.425
32 | ≥ 10 µM | chain 1 S30N N35W | 0.529
33 | ≥ 10 µM | chain 1 W108A G109C | 0.197
34 | ≥ 10 µM | chain 1 S101G W108R | 0.436
35 | ≥ 10 µM | chain 1 S101W M105I | 0.442
36 | 1.81 µM | chain 1 T28S W36R | 0.57
37 | ≥ 10 µM | chain 1 S101N Y102M | 0.944
38 | ≥ 10 µM | chain 1 S101D Y103A | 1.07
39 | 4.84 µM | chain 1 S30M Y32R | 0.465
40 | ≥ 10 µM | chain 1 S101M W108G | 0.228

Row | Kd (fluorescein) | Variant | yeast surface expression [1]
41 | ≥ 10 µM | chain 1 T28V W33G | 0.759
42 | ≥ 10 µM | chain 1 S101F W108K | 0.217
43 | ≥ 10 µM | chain 1 T28P V37P | 1.08
44 | 5.66 µM | chain 1 Y32I M34F | 0.871
45 | ≥ 10 µM | chain 1 W33V N35Q | 0.772
46 | ≥ 10 µM | chain 1 Y102T D106P | 0.351
47 | ≥ 10 µM | chain 1 S101D Y107I | 1.02
48 | ≥ 10 µM | chain 1 S101D Y107S | 0.672
49 | ≥ 10 µM | chain 1 T28C Y32W | 0.802
50 | 0.266 µM | chain 1 T28S Y32S | 0.966
51 | ≥ 10 µM | chain 1 W36D V37H | 0.21
52 | 0.832 µM | chain 1 T28Q N35P | 0.622
53 | ≥ 10 µM | chain 1 W36Q V37T | 0.396
54 | 6.27 µM | chain 1 Y102V Y103G Y107F | 1.12
55 | 0.00215 µM | chain 1 S30I | 0.787
56 | ≥ 10 µM | chain 1 Y103S D106K | 0.311
57 | ≥ 10 µM | chain 1 Y102F G104H | 0.927
58 | ≥ 10 µM | chain 1 Y103L D106I | 0.764
59 | 0.004 µM | chain 1 T28V F29Q | 0.917

The next lines start with the variant.

Row | Variant | Kd (fluorescein) | yeast surface expression [1]
60 | chain 1 G104D W108Q | ≥ 10 µM | 0.249
61 | chain 1 D31W W33G | 9.02 µM | 0.542
62 | chain 1 G100K D106S | ≥ 10 µM | 0.303
63 | chain 1 F29Q S30G | 0.0391 µM | 0.863
64 | chain 1 G100I W108M | 0.00468 µM | 0.946
65 | chain 1 M105T G109L | ≥ 10 µM | 0.188
66 | chain 1 D31Y W33R | ≥ 10 µM | 0.325
67 | chain 1 F29Q W33I | ≥ 10 µM | 0.707
68 | chain 1 N35F V37S | ≥ 10 µM | 0.884
69 | chain 1 G100I G109A | ≥ 10 µM | 0.429
70 | chain 1 G104S W108E | ≥ 10 µM | 0.198
71 | chain 1 D31S M34C N35Y | ≥ 10 µM | 0.927
72 | chain 1 F29L W33Y | ≥ 10 µM | 0.732
73 | chain 1 G100P Y102W | ≥ 10 µM | 0.682
74 | chain 1 G109K | ≥ 10 µM | 0.229
75 | chain 1 F29N D31C M34N | ≥ 10 µM | 0.701
76 | chain 1 G100W S101D G109V | ≥ 10 µM | 0.286
77 | chain 1 F29L M34K W36P | 0.228 µM | 0.61
78 | chain 1 D106L G109C | ≥ 10 µM | 0.166

Row | Variant | Kd (fluorescein) | yeast surface expression [1]
79 | chain 1 G100W S101E | ≥ 10 µM | 0.429
80 | chain 1 D31E W36Q | ≥ 10 µM | 0.326
81 | chain 1 M34L N35T | ≥ 10 µM | 0.824
82 | chain 1 D31A W36M | ≥ 10 µM | 0.551
83 | chain 1 D106Q | 5.66 µM | 0.846
84 | chain 1 F29A W36H | ≥ 10 µM | 0.912
85 | chain 1 D31E W33C | ≥ 10 µM | 0.827
86 | chain 1 D31R W36N | ≥ 10 µM | 1.06
87 | chain 1 N35H V37Y | ≥ 10 µM | 0.779
88 | chain 1 M105K G109W | ≥ 10 µM | 0.118
89 | chain 1 M34G W36A | ≥ 10 µM | 1.01
90 | chain 1 G100D D106W | ≥ 10 µM | 0.254
91 | chain 1 M105S | ≥ 10 µM | 0.889
92 | chain 1 M105D | ≥ 10 µM | 0.695
93 | chain 1 M105L | 0.00519 µM | 0.924
94 | chain 1 F29M D31I | ≥ 10 µM | 0.518
95 | chain 1 F29Y M34E | ≥ 10 µM | 0.542
96 | chain 1 D31L N35F | ≥ 10 µM | 0.446
97 | chain 1 N35L W36I | ≥ 10 µM | 0.256

Row | Variant | Kd (fluorescein) | yeast surface expression [1]
98 | chain 1 G100W Y107Q | ≥ 10 µM | 0.323
99 | chain 1 G100I | ≥ 10 µM | 0.852
100 | chain 1 G100Q | ≥ 10 µM | 0.476
101 | chain 1 G100M | ≥ 10 µM | 0.759
102 | chain 1 G100F | ≥ 10 µM | 0.93
103 | chain 1 F29C W33E | ≥ 10 µM | 0.556
104 | chain 1 F29C W33G | ≥ 10 µM | 0.544
105 | chain 1 G104T W108A | ≥ 10 µM | 0.326
106 | chain 1 D31H V37Q | 0.00128 µM | 0.928
107 | chain 1 F29N V37D | ≥ 10 µM | 0.229
108 | chain 1 G100A Y102R G109C | ≥ 10 µM | 0.266
109 | chain 1 F29G Y32Q | ≥ 10 µM | 0.991
110 | chain 1 M34P N35Q | ≥ 10 µM | 0.194
111 | chain 1 F29L N35D | ≥ 10 µM | 0.64
112 | chain 1 F29Y D31E W33G | ≥ 10 µM | 1.63
113 | chain 1 M105I D106Y | ≥ 10 µM | 0.4
114 | chain 1 S30C | 0.00128 µM | 0.906
115 | chain 1 S30E | 0.000962 µM | 0.948
116 | chain 1 G104F W108T | ≥ 10 µM | 0.194
